The results in this text go back to the RNAGym collection of RNA variant scans (doi:10.7554/elife.80360).

Sequences and labels used below:
B1: HDV Ribozyme (parent)
chain: GGCCGGCAUGGUCCCAGCCUCCUCGCUGGCGCCGGCUGGGCAACAUUCCGAGGGGACCGUCCCCUCGGUAAUGGCGAAUGGGACCCA

Variants of B1 are the subject of this data set. Put plainly: self-cleavage, relative activity (ratio to wild type); higher = more cleavage; co-transcriptional.
As to C4U C64G, the self-cleavage came to 0.538.
On to C4G C58U, for which the self-cleavage was determined as 0.404.
C4G C58G: the self-cleavage came to 0.289.
In the case of C4A G59C, the self-cleavage is 0.302.
As for C4A G59A, the figure is 0.346; as for C4U C21U, 0.0678.
On to C4U U46C, for which the self-cleavage worked out at 0.403.
Consider C4U A70U, for which the self-cleavage was 0.554.
Regarding C4U C57G, the self-cleavage was 0.629.
In the case of C4U C57U, the self-cleavage was 0.656.
With C4G G29C, the self-cleavage stood at 0.
In the case of C4G G73U, the self-cleavage amounted to 0.086.
As to C4U G73C, the self-cleavage came out at 0.242.
With C4U G73U, the self-cleavage worked out at 0.138.
C4A U69G: the self-cleavage came to 0.285.
On to G5A A78U, for which the self-cleavage was determined as 0.101.
In the case of C4U G76A, the self-cleavage is 0.443.
In the case of C4G C63A, the self-cleavage was found to be 0.177.
For the variant C4G C63U, the self-cleavage was 0.249.
In the case of C4G C63G, the self-cleavage was found to be 0.0396.
On to C4G G54C, for which the self-cleavage came to 0.213.
For the variant G5A C30U, the self-cleavage was 0.0692.
In the case of C4G C33A, the self-cleavage is 0.
Turning to C4G C33G, the self-cleavage is 0.0583.
Take C4A U12A: the self-cleavage amounted to 0.0712.
For C4A U12C, the self-cleavage was determined as 0.095.
In the case of C4A U12G, the self-cleavage was 0.0536.
Regarding C4A U47A, the self-cleavage was determined as 0.156.
In the case of C4A U47C, the self-cleavage was found to be 0.293.
For the variant C4U C62G, the self-cleavage was determined as 0.151.
In the case of C4U C62U, the self-cleavage was found to be 0.656.
For the variant G5A C14U, the self-cleavage turned out to be 0.119.
As for C4U C32G, the self-cleavage was 0.
Regarding C4G C64A, the self-cleavage worked out at 0.219.
Regarding C4U A78G, the self-cleavage was 0.375.
In the case of C4U A78U, the self-cleavage stood at 0.155.
Then C4G U23A, with 0.47; and C4U G52A, with 0.443; and C4U G52U, with 0.831.
As for C4U A77G, the figure is 0.578; as for C4U C26U, 0.764.
Then G5A A87U, with 0.218; and C4G G10A, with 0.105.
For G5A C7A, the self-cleavage was determined as 0.
In the case of G5A C7U, the self-cleavage stood at 0.0978.
For C4U U37G, the self-cleavage came to 0.
With C4U A83G, the self-cleavage was 0.464.
As for G5A C18A, the figure is 0.0875; as for C4U A42G, 0.138; as for C4U A42C, 0.0475.
With C4G G80U, the self-cleavage came out at 0.0953.
Regarding C4G G80C, the self-cleavage turned out to be 0.0906.
Regarding C4G G80A, the self-cleavage came to 0.0203.
Take C4U C61A: the self-cleavage was found to be 0.978.
Take C4U C61U: the self-cleavage came out at 0.717.
As for C4A U72G, the self-cleavage was 0.111.
With C4A U72A, the self-cleavage came out at 0.0723.
As for C4G G6A, the figure is 0; as for C4G G6U, 0.0237; as for C4G A16G, 0.453.
Then C4U G55C, with 0.656; and C4U G55U, with 0.639; and C4U G55A, with 0.772.
Then C4A G82C, with 0.0396; and G5A C15A, with 0.162; and C4G C15A, with 0.142.
C4G C15U: the self-cleavage was determined as 0.277.
As to C4G G34C, the self-cleavage stood at 0.782.
Then C4G U47C, with 0.346; and C4U U72A, with 0.415; and C4U U72C, with 0.554.
As to C4U G6U, the self-cleavage is 0.219.
On to G5A C41A, for which the self-cleavage was 0.0615.
Regarding G5A C41G, the self-cleavage worked out at 0.
As to C4U G68U, the self-cleavage was found to be 0.657.
As for C4G A43C, the self-cleavage was determined as 0.0519.
For the variant C4G A43G, the self-cleavage came to 0.
C4G C85A: the self-cleavage is 0.435.
For C4G C85U, the self-cleavage stood at 0.306.
For G5A A56C, the self-cleavage came out at 0.107.
As for C4G C26G, the figure is 0.306; as for C4G C26A, 0.569; as for C4G U60C, 0.0875.
Regarding C4G U60A, the self-cleavage turned out to be 0.332.
For the variant C4G U60G, the self-cleavage came to 0.213.
Then C4U G34U, with 0.424; and C4U G34C, with 0.151; and C4U G5A, with 0.185.
As for C4U G5U, the self-cleavage came to 0.237.
In the case of G5A A71G, the self-cleavage was 0.
Then G5A A71C, with 0.0426; and C4U U65A, with 0.727.
As to C4U U65C, the self-cleavage was 1.06.
C4U U65G: the self-cleavage was 0.656.
Turning to G5A C44G, the self-cleavage was determined as 0.0369.
As for C4G G35C, the figure is 0.13; as for C4G G35A, 0; as for C4G G59C, 0.481.
Consider C4G A8G, for which the self-cleavage came to 0.346.
In the case of C4G C75U, the self-cleavage came to 0.0396.
As to C4G C62G, the self-cleavage turned out to be 0.123.
As for G5A A42C, the figure is 0.135.
With G5A A42G, the self-cleavage worked out at 0.
Take G5A A42U: the self-cleavage is 0.111.
As for C4G G25C, the figure is 0.
Regarding C4G G25A, the self-cleavage was determined as 0.0256.
Take C4U C58G: the self-cleavage is 0.615.
For the variant C4U G80U, the self-cleavage came to 0.0683.
Then C4U G80C, with 0.157.
C4G U46A: the self-cleavage was 0.0573.
Consider C4G C21A, for which the self-cleavage was found to be 0.0292.
Turning to C4G C21U, the self-cleavage was 0.
On to G5A C26G, for which the self-cleavage came out at 0.427.
In the case of G5A C26A, the self-cleavage came to 0.522.
Take C4A G73U: the self-cleavage is 0.
As for C4G G68A, the figure is 0.309; as for C4G C86G, 0.249.
As for C4G C86A, the self-cleavage was found to be 0.554.
For C4U G74A, the self-cleavage is 0.197.
Regarding C4U G74C, the self-cleavage was determined as 0.0791.
In the case of C4U G17A, the self-cleavage worked out at 0.332.
As to C4U G17U, the self-cleavage turned out to be 0.136.
As for C4G G38A, the figure is 0; as for C4G G38U, 0.0287.
As for C4A U23C, the self-cleavage amounted to 0.0978.
Consider C4A U23A, for which the self-cleavage was 0.309.
As to G5A A43C, the self-cleavage amounted to 0.0594.
As for G5A A43G, the self-cleavage is 0.131.
With G5A A43U, the self-cleavage amounted to 0.089.
Take C4U C41U: the self-cleavage is 0.567.
Regarding C4G C41U, the self-cleavage came out at 0.289.
On to C4G C41A, for which the self-cleavage is 0.162.
In the case of C4A U60C, the self-cleavage came to 0.344.
Then C4A U60G, with 0.0449; and C4A U60A, with 0.284; and C4U C30U, with 0.332.
With C4G C24G, the self-cleavage worked out at 0.0426.
As for C4G C24A, the self-cleavage worked out at 0.102.
As to C4G G55U, the self-cleavage stood at 0.376.
As for C4G G55C, the figure is 0.185.
C4U A71C: the self-cleavage is 0.499.
As for C4U A43G, the figure is 0; as for C4U A43U, 0.332; as for C4U G10C, 0.63.
As for G5A A8U, the figure is 0.151; as for G5A A8G, 0.0692; as for G5A A8C, 0.0519.
Then C4U U23A, with 0.727; and C4U U23G, with 0.302; and C4G U72G, with 0.0519.
On to C4G U72A, for which the self-cleavage is 0.0437.
As for C4G G28A, the self-cleavage stood at 0.
For the variant C4G G28U, the self-cleavage turned out to be 0.
Take C4U C7G: the self-cleavage is 0.
For the variant C4U G28A, the self-cleavage stood at 0.0845.
With C4U G28U, the self-cleavage was determined as 0.0277.
Regarding G5A C48U, the self-cleavage came to 0.0405.
Regarding C4G A45G, the self-cleavage worked out at 0.201.
In the case of C4G A45U, the self-cleavage was 0.161.
On to C4G G40C, for which the self-cleavage is 0.128.
On to C4G G40U, for which the self-cleavage was 0.381.
On to C4U G25A, for which the self-cleavage amounted to 0.111.
In the case of C4A G74U, the self-cleavage was 0.0583.
As to C4U C24A, the self-cleavage was 0.0583.
As for C4U C24G, the figure is 0.0678; as for G5A A16C, 0.166; as for G5A A16U, 0.356.
